Results taken from patent US20210355235A1, “Compositions and Methods For Treating Cancer with Anti-Renalase antibodies and Anti-PD1 antibodies” (YALE UNIVERSITY, priority 2017, published 2021).
Read-outs that look alike come from different tables or passages of the source.

How the values were obtained:
[1] = tested on: renalase-1 and renalase-2; assay: renalase isoform specificity of the antibodies (ELISA / hybridoma screening); assay type: binding, human; settings: renalase-1 vs renalase-2
Method: Peptides were used as immunogens. The peptides generated ranged from 9 to 21 amino acids and corresponded to regions of the renalase-1 and renalase-2 proteins. […] Each peptide was conjugated to the adjuvant KLH via the cysteine and used to immunize 6 rabbits. Antiserum collected from each animal was screened for anti-renalase antibody titer by ELISA assay using both the relevant peptide (BSA-conjugate) or full length renalase-1 or 2. The antisera were also tested for their ability to detect endogenous renalase in tissue lysates by western blot. Using these screening criteria the animals producing antibodies with the preferred characteristics were selected. In some examples and for some peptides, several animals produced antibodies with the required specificity. […] Polyclonal antibodies raised against all of the peptides were generated by purification of total IgG from terminal bleeds by protein G chromatography followed by further purification on peptide affinity chromatography. Further and using standard procedures, lymphocytes from the spleens of selected animals were fused to myeloma cells for hybridoma generation. The hybridoma supernatants were screened for binding to both the peptides against which they were raised and secondarily screened against whole renalase protein. Selected hybridomas were sub-cloned and expanded for antibody purification. The monoclonal antibodies were purified from conditioned hybridoma culture supernatant by protein A affinity chromatography.

[2] = tested on: melanoma cell lines; assay: melanoma cells in culture, viability / growth; assay type: cell-based, human
Method: Total cell number and percentage of live cells were assessed by trypan blue exclusion, and cells were counted using a BioRad TC10 automated cell counter. For additional studies, cell viability was determined using WST-1 reagent (Roche Diagnostics, Indianapolis, Ind., USA) according to the manufacturers' instruction. Absorbances were read using a microplate reader (Power Waves XS, BioTek Instruments, Winooski, Vt., USA).

[3] = tested on: PDACC (pancreatic ductal adenocarcinoma cells); assay: PDACC viability with anti-RNLS antibodies, WST-1; assay type: cell-based, human; settings: 72 hrs
Method: FIG. 25, comprising FIGS. 25A through 25E, is a series of charts and images showing that inhibition of RNLS signaling is cytotoxic to cancer cells in vitro and in vivo. FIG. 25A is a chart showing relative cell viability following transient transfection of Panc1 cells using a RNLS-specific siRNA, or a non-specific control siRNA, and cell viability assayed 96 h later using the WST-1 reagent; n=6, ** indicates p<0.001. FIG. 25B is a chart showing relative cell viability when cells were treated with indicated antibodies for 72 hrs and cell viability determined using WST-1; m28-RNLS and m37-RNLS: monoclonal antibodies raised against RNLS peptide RP220, ab31291: Abcam polyclonal antibody raised against a partial sequence of RP-220; n=6, * indicates p<0.005. […] FIG. 25D is a chart showing tumor volume increase after athymic nude mice received subcutaneous injection of Panc1 cells transduced with RNLS shRNA (sh-RNLS) or control (sh-Control); tumor volume measured every […] for up to 30 days, n=6 each; * indicates p<0.05. FIG. 25E is chart showing tumor volume increase after nude mice were xenografted with BxPC3; tumor volume measured prior to treatment every 3-4 days with 2 mg/kg of either rabbit IgG as a negative control or with m28-RNLS, n=10, * indicates p<0.05.
Cell viability was assessed by trypan blue exclusion, and cells were counted using a BioRad TC10 automated counter.

renalase-type specificity [1]	Molecule	melanoma cell viability / growth in culture [2]	melanoma cell viability / growth in culture ([2]; listed as 1D-37-10)	melanoma cell viability / growth in culture ([2]; listed as D-37-10)	PDACC growth / viability [3]
specific for renalase-1	1F-26-1: anti-renalase monoclonal specific for renalase-1; heavy chain SEQ ID NO:25, light chain SEQ ID NO:26 (antibody, 1F-26-1 full length heavy chain amino acid; 1F-26-1 full length light chain amino acid) heavy: METGLRWLLLVAVLKGVQCQSVKESEGGLFKPTDTLTLTCTVSGFSLSSYGVTWVRQAPGNGLEWIGLIGDRGTTFYASWAKSRSTITRNTNLNTVTLKMTRLTAADTATYFCARGSGYGARIWGPGTLVTVSSWQPKAPSVFPLAPCCGDTPSSTVTLGCLVKGYLPEPVTVTWNSGTLTNGVRTFPSVRQSSGLYSLSSVVSVTSSSQPVTCNVAHPATNTKVDKTVAPSTCSKPTCPPPELLGGPSVFIFPPKPKDTLMISRTPEVTCVVVDVSQDDPEVQFTWYINNEQVRTARPPLREQQFNSTIRVVSTLPIAHQDWLRGKEFKCKVHNKALPAPIEKTISKARGQPLEPKVYTMGPPREELSSRSVSLTCMINGFYPSDISVEWEKNGKAEDNYKTTPAVLDSDGSYFLYSKLSVPTSEWQRGDVFTCSVMHEALHNHYTQKSISRSPGK light: MDTRAPTQLLGLLLLWLPGATFAQVLTQTPSPVSAAVGGTVTINCQSSQSVYKNNYLAWYQQKPGQPPKLLIYETSKLASGVPPRFSGSGSGTQFTLTISSVQCDDAATYYCQGGYSGVDFMAFGGGTEVVVKGDPVAPTVLIFPPSADLVATGTVTIVCVANKYFPDVTVTWEVDGTTQTTGIENSKTPQNSADCTYNLSSTLTLTSTQYNSHKEYTCKVTQGTTSVVQSFNRGDC	–	–	–	–
specific for renalase-1	1F-42-7: anti-renalase monoclonal specific for renalase-1; heavy chain SEQ ID NO:33, light chain SEQ ID NO:34 (antibody, 1F-42-7 full length heavy chain amino acid; 1F-42-7 full length light chain amino acid) heavy: METGLRWLLLVAVLKGVQCQSVKESEGGLFKPTDTLTLTCTVSGFSLTTYGVTWVRQAPGNGLEWIGLIGDRGTTYYASWVNGRSTITRNTNLNTVTLKMTRLTAADTATYFCARGSGYGARIWGPGTLVTVASWQPKAPSVFPLAPCCGDTPSSTVTLGCLVKGYLPEPVTVTWNSGTLTNGVRTFPSVRQSSGLYSLSSVVSVTSSSQPVTCNVAHPATNTKVDKTVAPSTCSKPTCPPPELLGGPSVFIFPPKPKDTLMISRTPEVTCVVVDVSQDDPEVQFTWYINNEQVRTARPPLREQQFNSTIRVVSTLPIAHQDWLRGKEFKCKVHNKALPAPIEKTISKARGQPLEPKVYTMGPPREELSSRSVSLTCMINGFYPSDISVEWEKNGKAEDNYKTTPAVLDSDGSYFLYSKLSVPTSEWQRGDVFTCSVMHEALHNHYTQKSISRSPGK light: MDTRAPTQLLGLLLLWLPGATFAQVLTQTPSPMSAALGGTVTINCQSSQTVYNNNYLSWYQQKPGQPPKLLIYETSKLSSGVPPRFSGSGSGTQFTLTISSVQCDDAATYYCQGGYSGVDFMAFGGGTEVVVKGDPVAPTVLIFPPSADLVATGTVTIVCVANKYFPDVTVTWEVDGTTQTTGIENSKTPQNSADCTYNLSSTLTLTSTQYNSHKEYTCKVTQGTTSVVQSFNRGDC	–	–	–	–
specific for renalase-2	3A-5-2: anti-renalase monoclonal specific for renalase-2; heavy chain SEQ ID NO:41, light chain SEQ ID NO:42 (antibody, 3A-5-2 full length heavy chain amino acid; 3A-5-2 full length light chain amino acid) heavy: METGLRWLLLVAVLKGVQCQSLEESGGRLVTPGTPLTLTCTVSGFSLNNYHIYWVRQAPGKGLEYIGIIFNGGTYYARWTKGRFTISKTSTTVDLKMTSLTTEDTATYFCARGDGIWGPGTLVTVSLGQPKAPSVFPLAPCCGDTPSSTVTLGCLVKGYLPEPVTVTWNSGTLTNGVRTFPSVRQSSGLYSLSSVVSVTSSSQPVTCNVAHPATNTKVDKTVAPSTCSKPTCPPPELLGGPSVFIFPPKPKDTLMISRTPEVTCVVVDVSQDDPEVQFTWYINNEQVRTARPPLREQQFNSTIRVVSTLPIAHQDWLRGKEFKCKVHNKALPAPIEKTISKARGQPLEPKVYTMGPPREELSSRSVSLTCMINGFYPSDISVEWEKNGKAEDNYKTTPAVLDSDGSYFLYSKLSVPTSEWQRGDVFTCSVMHEALHNHYTQKSISRSPGK light: MDTRAPTQLLGLLLLWLPGATFAQVLTQTPASVSAAVGGTVTINCQASQSVFNNNYLAWYQQKPGQPPKRLIYSASTLASGVSSRFKGSGSGTEFTLTMSGVECDDAATYYCAGSFDCNSGDCVAFGGGTEVVVKGDPVAPTVLIFPPAADQVATGTVTIVCVANKYFPDVTVTWEVDGTTQTTGIENSKTPQNSADCTYNLSSTLTLTSTQYNSHKEYTCKVTQGTTSVVQSFNRGDC	–	–	–	–
recognize renalase-1 and renalase-2	m37-RNLS: rabbit anti-renalase monoclonal raised against RP-220; heavy chain SEQ ID NO:17, light chain SEQ ID NO:18 (antibody, 1D-37-10 full length heavy chain amino acid; 1D-37-10 full length light chain amino acid) heavy: METGLRWLLLVAVLKGVQCQSVEESGGRLVTPGGSLTLTCTVSGFSLSDYAIIWVRQAPGKGLEYIAIIGSSGDTFYATWAKGRFTISKTSTTVDLKMTSLTAADTATYFCAPRYAGTTDYHDAFDPWGPGTLVTVSSGQPKAPSVFPLAPCCGDTPSSTVTLGCLVKGYLPEPVTVTWNSGTLTNGVRTFPSVRQSSGLYSLSSVVSVTSSSQPVTCNVAHPATNTKVDKTVAPSTCSKPTCPPPELLGGPSVFIFPPKPKDTLMISRTPEVTCVVVDVSQDDPEVQFTWYINNEQVRTARPPLREQQFNSTIRVVSTLPIAHQDWLRGKEFKCKVHNKALPAPIEKTISKARGQPLEPKVYTMGPPREELSSRSVSLTCMINGFYPSDISVEWEKNGKAEDNYKTTPAVLDSDGSYFLYSKLSVPTSEWQRGDVFTCSVMHEALHNHYTQKSISRSPGK light: MDTRAPTQLLGLLLLWLPGARCAEVVMTQTPASMEAPMGGTVTIKCQASQNIYNYLSWYQQKPGQPPKLLVYKASTLTSGVPSRFKGSGSGTQFTLTISDLECADAATYYCQINYSIYNHYNIIFGGGTEVVVKGDPVAPTVLIFPPSADLVATGTVTIVCVANKYFPDVTVTWEVDGTTQTTGIENSKTPQNSADCTYNLSSTLTLTSTQYNSHKEYTCKVTQGTTSVVQSFNRGDC	decreased the viability of all (total of 5) melanoma cell lines tested	inhibit melanoma cells in culture	inhibit melanoma cell growth	inhibitory effects
